Experimental data reported in patent US20220010021A1 (Sanofi, published 2022).

What was measured:
[1] = target: human FGFR1c/KLB cell surface receptor complex on iLite FGF21 reporter cells (human, UniProt P11362 22-822; Q86Z14 1-1044); assay: cell-based or functional assay
[2] = target: T1, human beta-Klotho (KLB) (human, UniProt Q86Z14 53-997); assay: BLI off-rate screen (Octet), Ab captured via Fc;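 also: antibody supernatants applied at 25 µg/mL, dissociation monitored over 1800 s in D-PBS with 0.1% BSA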
T1 construct: also called human KLB
T1 sequence (looked up): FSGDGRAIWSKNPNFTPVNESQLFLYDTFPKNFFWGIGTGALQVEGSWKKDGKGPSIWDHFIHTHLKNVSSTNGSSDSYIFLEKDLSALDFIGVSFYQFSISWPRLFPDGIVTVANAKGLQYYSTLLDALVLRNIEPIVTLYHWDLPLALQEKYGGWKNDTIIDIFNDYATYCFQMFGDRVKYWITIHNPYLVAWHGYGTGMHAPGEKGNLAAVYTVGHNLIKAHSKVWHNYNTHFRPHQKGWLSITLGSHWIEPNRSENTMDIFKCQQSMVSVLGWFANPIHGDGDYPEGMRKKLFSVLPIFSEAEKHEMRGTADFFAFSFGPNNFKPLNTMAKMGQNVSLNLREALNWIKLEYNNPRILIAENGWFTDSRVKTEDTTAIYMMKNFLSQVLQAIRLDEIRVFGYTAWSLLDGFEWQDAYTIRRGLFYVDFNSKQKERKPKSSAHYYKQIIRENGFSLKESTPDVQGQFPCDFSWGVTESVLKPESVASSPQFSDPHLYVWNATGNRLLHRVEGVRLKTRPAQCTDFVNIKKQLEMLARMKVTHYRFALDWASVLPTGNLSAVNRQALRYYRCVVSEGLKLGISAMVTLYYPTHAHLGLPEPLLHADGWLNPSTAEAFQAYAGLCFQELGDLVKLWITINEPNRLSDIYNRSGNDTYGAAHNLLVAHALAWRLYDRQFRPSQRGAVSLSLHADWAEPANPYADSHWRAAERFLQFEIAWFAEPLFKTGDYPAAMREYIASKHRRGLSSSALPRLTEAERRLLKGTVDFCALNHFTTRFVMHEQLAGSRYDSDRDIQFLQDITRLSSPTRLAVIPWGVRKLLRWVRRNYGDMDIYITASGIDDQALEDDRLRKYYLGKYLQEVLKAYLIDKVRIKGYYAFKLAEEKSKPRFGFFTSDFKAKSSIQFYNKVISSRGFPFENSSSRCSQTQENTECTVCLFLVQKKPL

[3] = target: cell surface receptor composed of FGFR1c and co-receptor beta-Klotho (KLB) (human, UniProt P11362 22-822; Q86Z14 1-1044); assay: cell-based or functional assay
Target sequence in this assay (P11362 22-822, chain 1 of 2): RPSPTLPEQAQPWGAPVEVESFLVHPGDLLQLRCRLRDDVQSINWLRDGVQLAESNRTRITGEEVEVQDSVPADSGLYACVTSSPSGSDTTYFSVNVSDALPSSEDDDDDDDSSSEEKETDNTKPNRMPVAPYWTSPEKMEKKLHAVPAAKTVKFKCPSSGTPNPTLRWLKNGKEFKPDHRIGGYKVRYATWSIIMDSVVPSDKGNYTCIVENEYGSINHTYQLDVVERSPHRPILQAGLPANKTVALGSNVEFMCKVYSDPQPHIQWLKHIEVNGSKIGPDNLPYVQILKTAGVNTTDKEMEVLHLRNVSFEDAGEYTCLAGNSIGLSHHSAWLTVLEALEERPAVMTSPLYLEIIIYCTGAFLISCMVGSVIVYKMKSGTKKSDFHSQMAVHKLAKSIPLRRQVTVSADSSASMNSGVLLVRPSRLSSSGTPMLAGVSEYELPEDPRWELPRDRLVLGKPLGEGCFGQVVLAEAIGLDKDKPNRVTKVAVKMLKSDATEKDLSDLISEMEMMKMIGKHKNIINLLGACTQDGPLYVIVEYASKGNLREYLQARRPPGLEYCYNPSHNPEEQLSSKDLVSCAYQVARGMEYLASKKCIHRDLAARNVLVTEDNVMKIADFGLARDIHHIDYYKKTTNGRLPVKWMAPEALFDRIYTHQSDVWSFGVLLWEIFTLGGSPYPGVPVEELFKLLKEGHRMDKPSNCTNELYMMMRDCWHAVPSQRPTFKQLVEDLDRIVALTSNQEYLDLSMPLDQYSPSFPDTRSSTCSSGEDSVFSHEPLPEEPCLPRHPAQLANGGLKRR
Target sequence in this assay (Q86Z14 whole entry, chain 2 of 2): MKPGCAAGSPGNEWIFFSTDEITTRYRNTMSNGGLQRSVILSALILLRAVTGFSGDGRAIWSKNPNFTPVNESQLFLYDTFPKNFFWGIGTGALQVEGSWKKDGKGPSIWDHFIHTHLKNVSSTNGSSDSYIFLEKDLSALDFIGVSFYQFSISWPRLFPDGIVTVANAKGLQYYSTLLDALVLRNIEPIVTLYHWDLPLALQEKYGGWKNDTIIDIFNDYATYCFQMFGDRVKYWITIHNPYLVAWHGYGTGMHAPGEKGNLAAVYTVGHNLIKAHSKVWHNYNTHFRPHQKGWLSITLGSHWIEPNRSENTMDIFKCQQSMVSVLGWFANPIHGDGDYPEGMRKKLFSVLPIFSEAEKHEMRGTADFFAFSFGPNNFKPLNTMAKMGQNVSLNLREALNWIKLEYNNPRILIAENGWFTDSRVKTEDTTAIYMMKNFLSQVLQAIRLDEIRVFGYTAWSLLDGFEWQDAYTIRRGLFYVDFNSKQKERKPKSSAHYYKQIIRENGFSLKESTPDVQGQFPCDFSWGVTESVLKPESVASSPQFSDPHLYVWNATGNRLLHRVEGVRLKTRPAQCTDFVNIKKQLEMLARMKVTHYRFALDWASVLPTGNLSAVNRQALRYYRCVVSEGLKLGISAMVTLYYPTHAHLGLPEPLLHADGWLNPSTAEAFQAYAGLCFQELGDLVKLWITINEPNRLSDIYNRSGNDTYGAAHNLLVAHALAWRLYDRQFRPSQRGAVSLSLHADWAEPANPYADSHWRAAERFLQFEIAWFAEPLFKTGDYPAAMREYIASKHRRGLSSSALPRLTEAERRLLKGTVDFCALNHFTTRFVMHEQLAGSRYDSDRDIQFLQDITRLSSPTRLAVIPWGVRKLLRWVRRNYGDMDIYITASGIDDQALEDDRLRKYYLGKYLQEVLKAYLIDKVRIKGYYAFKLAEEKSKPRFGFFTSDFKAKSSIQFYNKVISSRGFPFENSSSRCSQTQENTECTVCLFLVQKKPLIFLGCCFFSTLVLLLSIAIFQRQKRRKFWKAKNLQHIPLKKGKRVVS

[4] = target: cell surface receptor composed of FGFR1c and co-receptor beta-Klotho (KLB) (human, UniProt P11362 22-822; Q86Z14 1-1044); assay: cell-based or functional assay; remark: listed apart in the source
Target sequence in this assay (P11362 22-822, chain 1 of 2): as the sequence (P11362 22-822, chain 1 of 2) above
Target sequence in this assay (Q86Z14 whole entry, chain 2 of 2): as the sequence (Q86Z14 whole entry, chain 2 of 2) above

[5] = target: human FGFR1c/KLB receptor complex on iLite FGF21 Assay Ready Cells (human, UniProt P11362 22-822; Q86Z14 1-1044); assay: cell-based or functional assay
human FGFR1c/KLB receptor complex on iLite FGF21 Assay Ready Cells, sequence (P11362 22-822, chain 1 of 2): as the sequence (P11362 22-822, chain 1 of 2) above
human FGFR1c/KLB receptor complex on iLite FGF21 Assay Ready Cells, sequence (Q86Z14 whole entry, chain 2 of 2): as the sequence (Q86Z14 whole entry, chain 2 of 2) above
For Mean E max (%) in this document: reference of the scale not given here.
For Mean E max, Luciferase reporter gene assay in this document: reference of the scale not given here.

human FGFR1c/KLB cell surface receptor complex on iLite FGF21 reporter cells, sequence (P11362 22-822, chain 1 of 2): as the sequence (P11362 22-822, chain 1 of 2) above
human FGFR1c/KLB cell surface receptor complex on iLite FGF21 reporter cells, sequence (Q86Z14 whole entry, chain 2 of 2): as the sequence (Q86Z14 whole entry, chain 2 of 2) above

Binder | Mean E max (%) [1] | Mean E max, Luciferase reporter gene assay [3] | Mean EC50, Luciferase reporter gene assay [3] | further results
16H7 variant, light chain N26T (antibody, human IgG4 S228P, lambda, V domains shown, IgG4 backbone) VH: not shown VL: SYVLTQPPSVSVAPGQTARITCGGNTIGSESVHWYQQKPGQAPVLVVYDDSDRPSGIPERFSGSNSGNTATLTISRVEAGDEADYYCQVWDGNSDHVVFGGGTKLTVLG | 105% |  |  | Mean EC50 [1]: 0.143 nM; koff [2]: 4.4e-05 s⁻¹
16H7 light chain variant V97K (antibody, IgG4, V domains shown) VH: not shown VL: SYVLTQPPSVSVAPGQTARITCGGNNIGSESVHWYQQKPGQAPVLVVYDDSDRPSGIPERFSGSNSGNTATLTISRVEAGDEADYYCQVWDGNSDHKVFGGGTKLTVLG |  | 96% | 0.444 nM | 
16H7 light chain variant V97D (antibody, IgG4, V domains shown) VH: not shown VL: SYVLTQPPSVSVAPGQTARITCGGNNIGSESVHWYQQKPGQAPVLVVYDDSDRPSGIPERFSGSNSGNTATLTISRVEAGDEADYYCQVWDGNSDHDVFGGGTKLTVLG |  | 67% | 0.375 nM | 
16H7 light chain variant D50P (antibody, IgG4, V domains shown) VH: not shown VL: SYVLTQPPSVSVAPGQTARITCGGNNIGSESVHWYQQKPGQAPVLVVYDPSDRPSGIPERFSGSNSGNTATLTISRVEAGDEADYYCQVWDGNSDHVVFGGGTKLTVLG |  | 77% | 0.124 nM | 
16H7 light chain variant V97S (antibody, IgG4, V domains shown) VH: not shown VL: SYVLTQPPSVSVAPGQTARITCGGNNIGSESVHWYQQKPGQAPVLVVYDDSDRPSGIPERFSGSNSGNTATLTISRVEAGDEADYYCQVWDGNSDHSVFGGGTKLTVLG |  | 84% | 0.308 nM | 
16H7 light chain variant V97R (antibody, IgG4, V domains shown) VH: not shown VL: SYVLTQPPSVSVAPGQTARITCGGNNIGSESVHWYQQKPGQAPVLVVYDDSDRPSGIPERFSGSNSGNTATLTISRVEAGDEADYYCQVWDGNSDHRVFGGGTKLTVLG |  | -1% |  | 
16H7 light chain variant V97H (antibody, IgG4, V domains shown) VH: not shown VL: SYVLTQPPSVSVAPGQTARITCGGNNIGSESVHWYQQKPGQAPVLVVYDDSDRPSGIPERFSGSNSGNTATLTISRVEAGDEADYYCQVWDGNSDHHVFGGGTKLTVLG |  | 71% | 1.47 nM | 
16H7 light chain variant V97G (antibody, IgG4, V domains shown) VH: not shown VL: SYVLTQPPSVSVAPGQTARITCGGNNIGSESVHWYQQKPGQAPVLVVYDDSDRPSGIPERFSGSNSGNTATLTISRVEAGDEADYYCQVWDGNSDHGVFGGGTKLTVLG |  | 75% | 0.51 nM | 
16H7 light chain variant V97E (antibody, IgG4, V domains shown) VH: not shown VL: SYVLTQPPSVSVAPGQTARITCGGNNIGSESVHWYQQKPGQAPVLVVYDDSDRPSGIPERFSGSNSGNTATLTISRVEAGDEADYYCQVWDGNSDHEVFGGGTKLTVLG |  | 92% | 0.15 nM | 
16H7 light chain variant V97P (antibody, IgG4, V domains shown) VH: not shown VL: SYVLTQPPSVSVAPGQTARITCGGNNIGSESVHWYQQKPGQAPVLVVYDDSDRPSGIPERFSGSNSGNTATLTISRVEAGDEADYYCQVWDGNSDHPVFGGGTKLTVLG |  | 65% | 2.55 nM | 
16H7 light chain variant G28Q (antibody, human IgG4 S228P, lambda, V domains shown) VH: not shown VL: SYVLTQPPSVSVAPGQTARITCGGNNIQSESVHWYQQKPGQAPVLVVYDDSDRPSGIPERFSGSNSGNTATLTISRVEAGDEADYYCQVWDGNSDHVVFGGGTKLTVLG |  |  |  | Mean E max, Luciferase reporter gene assay [4]: 104%
16H7 light chain variant G28V (antibody, human IgG4 S228P, lambda, V domains shown) VH: not shown VL: SYVLTQPPSVSVAPGQTARITCGGNNIVSESVHWYQQKPGQAPVLVVYDDSDRPSGIPERFSGSNSGNTATLTISRVEAGDEADYYCQVWDGNSDHVVFGGGTKLTVLG |  |  |  | Mean E max, Luciferase reporter gene assay [4]: 97%
16H7 variant, light chain R53N (antibody, human IgG4 S228P, lambda, V domains shown) VH: not shown VL: SYVLTQPPSVSVAPGQTARITCGGNNIGSESVHWYQQKPGQAPVLVVYDDSDNPSGIPERFSGSNSGNTATLTISRVEAGDEADYYCQVWDGNSDHVVFGGGTKLTVLG | 100% |  |  | 
16H7 variant with light chain substitution P54A (antibody, V domains shown) VH: not shown VL: SYVLTQPPSVSVAPGQTARITCGGNNIGSESVHWYQQKPGQAPVLVVYDDSDRASGIPERFSGSNSGNTATLTISRVEAGDEADYYCQVWDGNSDHVVFGGGTKLTVLG |  |  |  | Mean E max (%) [5]: 105%
16H7 variant, light chain S55A (antibody, human IgG4 S228P, lambda, V domains shown) VH: not shown VL: SYVLTQPPSVSVAPGQTARITCGGNNIGSESVHWYQQKPGQAPVLVVYDDSDRPAGIPERFSGSNSGNTATLTISRVEAGDEADYYCQVWDGNSDHVVFGGGTKLTVLG | 110% |  |  | 
16H7 variant with light chain substitution S55A (antibody, V domains shown) VH: not shown VL: SYVLTQPPSVSVAPGQTARITCGGNNIGSESVHWYQQKPGQAPVLVVYDDSDRPAGIPERFSGSNSGNTATLTISRVEAGDEADYYCQVWDGNSDHVVFGGGTKLTVLG |  |  |  | Mean E max (%) [5]: 110%
16H7 variant, light chain R53V (antibody, human IgG4 S228P, lambda, V domains shown) VH: not shown VL: SYVLTQPPSVSVAPGQTARITCGGNNIGSESVHWYQQKPGQAPVLVVYDDSDVPSGIPERFSGSNSGNTATLTISRVEAGDEADYYCQVWDGNSDHVVFGGGTKLTVLG | 101% |  |  | 
16H7 light chain variant S29Y (antibody, human IgG4 S228P, lambda, V domains shown) VH: not shown VL: SYVLTQPPSVSVAPGQTARITCGGNNIGYESVHWYQQKPGQAPVLVVYDDSDRPSGIPERFSGSNSGNTATLTISRVEAGDEADYYCQVWDGNSDHVVFGGGTKLTVLG |  |  |  | Mean E max, Luciferase reporter gene assay [4]: 102%
16H7 variant with light chain substitution R53N (antibody, V domains shown) VH: not shown VL: SYVLTQPPSVSVAPGQTARITCGGNNIGSESVHWYQQKPGQAPVLVVYDDSDNPSGIPERFSGSNSGNTATLTISRVEAGDEADYYCQVWDGNSDHVVFGGGTKLTVLG |  |  |  | Mean E max (%) [5]: 100%
16H7 variant, light chain N25F (antibody, human IgG4 S228P, lambda, V domains shown) VH: not shown VL: SYVLTQPPSVSVAPGQTARITCGGFNIGSESVHWYQQKPGQAPVLVVYDDSDRPSGIPERFSGSNSGNTATLTISRVEAGDEADYYCQVWDGNSDHVVFGGGTKLTVLG | 104% |  |  | 
16H7 variant, light chain P54A (antibody, human IgG4 S228P, lambda, V domains shown) VH: not shown VL: SYVLTQPPSVSVAPGQTARITCGGNNIGSESVHWYQQKPGQAPVLVVYDDSDRASGIPERFSGSNSGNTATLTISRVEAGDEADYYCQVWDGNSDHVVFGGGTKLTVLG | 105% |  |  | 
16H7 variant, light chain Q88S (antibody, human IgG4 S228P, lambda, V domains shown) VH: not shown VL: SYVLTQPPSVSVAPGQTARITCGGNNIGSESVHWYQQKPGQAPVLVVYDDSDRPSGIPERFSGSNSGNTATLTISRVEAGDEADYYCSVWDGNSDHVVFGGGTKLTVLG | 104% |  |  | 
16H7 variant, light chain G24P (antibody, human IgG4 S228P, lambda, V domains shown) VH: not shown VL: SYVLTQPPSVSVAPGQTARITCGPNNIGSESVHWYQQKPGQAPVLVVYDDSDRPSGIPERFSGSNSGNTATLTISRVEAGDEADYYCQVWDGNSDHVVFGGGTKLTVLG | 110% |  |  | 
16H7 variant with light chain substitution S51F (antibody, V domains shown) VH: not shown VL: SYVLTQPPSVSVAPGQTARITCGGNNIGSESVHWYQQKPGQAPVLVVYDDFDRPSGIPERFSGSNSGNTATLTISRVEAGDEADYYCQVWDGNSDHVVFGGGTKLTVLG |  |  |  | Mean E max (%) [5]: 100%; Mean EC50 [5]: 0.12 nM
16H7 variant with light chain substitution R53V (antibody, V domains shown) VH: not shown VL: SYVLTQPPSVSVAPGQTARITCGGNNIGSESVHWYQQKPGQAPVLVVYDDSDVPSGIPERFSGSNSGNTATLTISRVEAGDEADYYCQVWDGNSDHVVFGGGTKLTVLG |  |  |  | Mean E max (%) [5]: 101%
